Measurements reported in PMC5150216, “Actin activates Pseudomonas aeruginosa ExoY nucleotidyl cyclase toxin and ExoY-like effector domains from MARTX toxins” (Nature Communications, 2016).

Legend:
[1] = target: T1, α-actin from rabbit skeletal muscle (rabbit, UniProt P68135 1-377); experiment: co-sedimentation; details: both partners purified
[2] = target: T1, α-actin from rabbit skeletal muscle; experiment: co-sedimentation; as a6, F-actin with 6 μM phalloidin; details: both partners purified

B1: MBP-ExoY^K81M-ST (enzyme)
chain: MRIDGHRQVVSNATAQPGPLLRPADMQARALQDLFDAQGVGVPVEHALRMQAVARQTNTVFGIRPVERIVTTLIEEGFPTMGFSVKGKSSNWGPQAGFICVDQHLSKREDRDTAEIRKLNLAVAKGMDGGAYTQTDLRISRQRLAELVRNFGLVADGVGPVRLLTAQGPSGKRYEFEARQEPDGLYRISRLGRSEAVQVLASPACGLAMTADYDLFLVAPSIEAHGSGGLDARRNTAVRYTPLGAKDPLSEDGFYGREDMARGNITPRTRQLVDALNDCLGRGEHREMFHHSDDAGNPGSHMGDNFPATFYLPRAMEHRVGEESVRFDEVCVVADRKSFSLLVECIKGNGYHFTAHPDWNVPLRPSFQEALDFFQRKV
notes: also called His-MBP-ExoY^K81M-ST; source: expressed from pEA12 (Ptac promoter); purified under non-denaturing conditions (HisTrap, StrepTrap, Superdex 200); not shown: His-tag, N-terminal, kept; MBP, N-terminal, kept; Strep-tagII, C-terminal, kept
B1 was tested, and the Kd [1] was 1600 ± 300 nM, the “stoichiometry N” value [1] was 1 and the Kd [2] was 1600 to 1800 nM.
